This note sets out measurements from article PMC4094107 (Nature structural & molecular biology, 2010).

The chains are these.
T1: Human RAD51 (purified) (human, UniProt Q06609 1-339)
T1 sequence (looked up): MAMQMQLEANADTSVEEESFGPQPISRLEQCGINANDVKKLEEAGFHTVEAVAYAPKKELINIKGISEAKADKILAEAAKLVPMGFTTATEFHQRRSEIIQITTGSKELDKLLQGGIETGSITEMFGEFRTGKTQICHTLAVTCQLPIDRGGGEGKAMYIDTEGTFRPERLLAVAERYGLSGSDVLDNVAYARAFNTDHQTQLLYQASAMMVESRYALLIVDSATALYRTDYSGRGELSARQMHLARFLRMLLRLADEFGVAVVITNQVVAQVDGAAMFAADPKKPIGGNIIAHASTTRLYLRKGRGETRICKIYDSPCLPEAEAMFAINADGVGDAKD

T2: PALB2 (purified from baculovirus-infected Sf9 cells as GST-PALB2-His) (human, UniProt Q86YC2 1-1186)
T2 sequence (looked up): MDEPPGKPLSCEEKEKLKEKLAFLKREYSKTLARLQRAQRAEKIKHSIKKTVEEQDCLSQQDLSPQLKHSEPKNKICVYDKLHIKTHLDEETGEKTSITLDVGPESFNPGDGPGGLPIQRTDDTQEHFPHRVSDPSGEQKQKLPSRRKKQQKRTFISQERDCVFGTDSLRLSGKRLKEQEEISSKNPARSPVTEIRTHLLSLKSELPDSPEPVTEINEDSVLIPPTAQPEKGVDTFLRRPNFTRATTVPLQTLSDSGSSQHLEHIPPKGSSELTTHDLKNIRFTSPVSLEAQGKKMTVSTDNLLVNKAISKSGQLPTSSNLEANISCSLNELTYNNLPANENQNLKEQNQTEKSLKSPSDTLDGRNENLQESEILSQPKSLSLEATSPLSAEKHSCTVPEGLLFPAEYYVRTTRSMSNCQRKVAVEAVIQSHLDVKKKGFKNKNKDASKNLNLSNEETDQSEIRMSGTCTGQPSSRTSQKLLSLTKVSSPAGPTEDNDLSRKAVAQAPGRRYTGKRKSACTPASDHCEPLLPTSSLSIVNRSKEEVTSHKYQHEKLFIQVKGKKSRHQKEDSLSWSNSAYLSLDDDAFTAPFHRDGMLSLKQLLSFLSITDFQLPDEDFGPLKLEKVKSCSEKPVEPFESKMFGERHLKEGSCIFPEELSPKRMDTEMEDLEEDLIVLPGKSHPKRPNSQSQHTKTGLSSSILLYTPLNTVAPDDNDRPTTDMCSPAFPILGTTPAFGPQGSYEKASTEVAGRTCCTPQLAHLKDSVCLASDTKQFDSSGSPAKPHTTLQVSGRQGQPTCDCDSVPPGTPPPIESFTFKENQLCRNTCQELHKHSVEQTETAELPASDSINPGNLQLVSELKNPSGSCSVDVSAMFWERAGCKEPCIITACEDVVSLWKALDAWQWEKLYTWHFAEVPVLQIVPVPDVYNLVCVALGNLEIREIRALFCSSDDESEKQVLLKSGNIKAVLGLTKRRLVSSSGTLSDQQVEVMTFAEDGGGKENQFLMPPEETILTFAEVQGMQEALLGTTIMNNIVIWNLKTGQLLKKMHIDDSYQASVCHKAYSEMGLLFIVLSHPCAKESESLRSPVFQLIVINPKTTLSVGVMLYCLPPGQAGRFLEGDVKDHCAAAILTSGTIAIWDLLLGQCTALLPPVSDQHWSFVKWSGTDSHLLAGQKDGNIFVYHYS

B1: GST-PALB2 truncation 1 (P2T1, amino acids 1-200) (domain or fragment, human, UniProt Q86YC2 1-200, looked up)
chain: MDEPPGKPLSCEEKEKLKEKLAFLKREYSKTLARLQRAQRAEKIKHSIKKTVEEQDCLSQQDLSPQLKHSEPKNKICVYDKLHIKTHLDEETGEKTSITLDVGPESFNPGDGPGGLPIQRTDDTQEHFPHRVSDPSGEQKQKLPSRRKKQQKRTFISQERDCVFGTDSLRLSGKRLKEQEEISSKNPARSPVTEIRTHLL
B2: GST-RAD51 truncation 3 (R51T3, amino acids 184-257) (domain or fragment, human, UniProt Q06609 184-257, looked up)
chain: DVLDNVAYARAFNTDHQTQLLYQASAMMVESRYALLIVDSATALYRTDYSGRGELSARQMHLARFLRMLLRLAD
B3: BRC3/4-GST polypeptide (BRC3 and BRC4 region of BRCA2, amino acids 1409-1596) (domain or fragment, human, UniProt P51587 1409-1596, looked up)
chain: LTATKTEQNIKDFETSDTFFQTASGKNISVAKESFNKIVNFFDQKPEELHNFSLNSELHSDIRKNKMDILSYEETDIVKHKILKESVPVGTGNQLVTFQGQPERDEKIKEPTLLGFHTASGKKVKIAKESLDKVKNLFDEKEQGTSEITSFSHQWAKTLKYREACKDLELACETIEITAAPKCKEMQN
B4: GST-PALB2 truncation 5 (P2T5, amino acids 853-1186) (domain or fragment, human, UniProt Q86YC2 853-1186, looked up)
chain: GNLQLVSELKNPSGSCSVDVSAMFWERAGCKEPCIITACEDVVSLWKALDAWQWEKLYTWHFAEVPVLQIVPVPDVYNLVCVALGNLEIREIRALFCSSDDESEKQVLLKSGNIKAVLGLTKRRLVSSSGTLSDQQVEVMTFAEDGGGKENQFLMPPEETILTFAEVQGMQEALLGTTIMNNIVIWNLKTGQLLKKMHIDDSYQASVCHKAYSEMGLLFIVLSHPCAKESESLRSPVFQLIVINPKTTLSVGVMLYCLPPGQAGRFLEGDVKDHCAAAILTSGTIAIWDLLLGQCTALLPPVSDQHWSFVKWSGTDSHLLAGQKDGNIFVYHYS

In one assay the target is T1, Human RAD51 (purified). The assay can be described thus: pull-down.
The target in assay [1] is T2, PALB2 (purified from …). The assay can be described thus: co-IP.
Assay [2] addresses B1. Description: co-IP.
Assay [3] addresses B4. The assay can be described thus: co-IP.
Assay [4] deals with T2, PALB2 (purified from …). Description: co-IP. The source holds these as a separate data set.

Like-named read-outs stand apart in the source and are kept apart here.

With B1, in the assay with Human RAD51 (purified), the binding result was “binds”. Take B2: the binding result (in the assay with PALB2 (purified from …) [1]; in assay [2]; in assay [3]) was “binds” in each case. On to B3, for which, in the assay with PALB2 (purified from …) [4], the binding result is given as “binds”. B4: the binding result in the assay with Human RAD51 (purified) is recorded as “binds”.
